The source of these data is PMC4889922.

Where no end group is shown, it is not given here. [ ]: non-standard residue; d: D form. pS = N[C@@H](COP(=O)(O)O)C(=O)O

In assay [1] the target is SHARP (human SPOC domain) SPOC domain, 3477-3664 (UniProt Q96T58). In words: anti-Flag co-IP, NCoR blot. To be noted: reference: NCoR-C wild type; sites S2449,S2451.
Substrate in the assay “ITC”: SPOC domain from murine SHARP, residues 3474-3643 (mouse) (UniProt Q62504)
In words: ITC. For orientation: Isothermal titration calorimetry measures the heat released or taken up as one component is titrated into another.

On to “NCoR NCoR-C, 1942-2453 (from UniProt Q60974) NCoR-C S2449A/S2451A”, for which the “binding against the reference” value in assay [1] is listed as “lost”.

B1: NCoR C-terminal peptide, double-phosphorylated (peptide)
peptide: REPAPLLSAQYETL[pS]D[pS]DD
Take B1: in the assay “ITC”, the equilibrium dissociation constant (Kd) is 50 nM.

Usually Kd stands for the constant that tells how readily two partners part at equilibrium.
